From article PMC10279526, “Structural basis of centromeric cohesion protection” (Nature Structural & Molecular Biology, 2023)
Blank lines part the entries; values can stand above or below the binder they belong to. Non-standard residues stand in square brackets, D forms with d. No end group written: not given here. pT = C[C@@H](OP(=O)(O)O)[C@H](N)C(=O)O

Target: T1, SA2–SCC1 complex (SA2 amino acid residues 80–1060 with SCC1 amino acid residues 281–420) (UniProt Q8N3U4 80-1060; O60216 281-420)
T1 construct: SA2 (STAG2), cohesin subunit, residues 80-1060; SCC1 (RAD21, Mcd1), cohesin subunit, residues 281-420; also called cohesin subcomplex SA2–SCC1; CES
T1 sequence (looked up) 1: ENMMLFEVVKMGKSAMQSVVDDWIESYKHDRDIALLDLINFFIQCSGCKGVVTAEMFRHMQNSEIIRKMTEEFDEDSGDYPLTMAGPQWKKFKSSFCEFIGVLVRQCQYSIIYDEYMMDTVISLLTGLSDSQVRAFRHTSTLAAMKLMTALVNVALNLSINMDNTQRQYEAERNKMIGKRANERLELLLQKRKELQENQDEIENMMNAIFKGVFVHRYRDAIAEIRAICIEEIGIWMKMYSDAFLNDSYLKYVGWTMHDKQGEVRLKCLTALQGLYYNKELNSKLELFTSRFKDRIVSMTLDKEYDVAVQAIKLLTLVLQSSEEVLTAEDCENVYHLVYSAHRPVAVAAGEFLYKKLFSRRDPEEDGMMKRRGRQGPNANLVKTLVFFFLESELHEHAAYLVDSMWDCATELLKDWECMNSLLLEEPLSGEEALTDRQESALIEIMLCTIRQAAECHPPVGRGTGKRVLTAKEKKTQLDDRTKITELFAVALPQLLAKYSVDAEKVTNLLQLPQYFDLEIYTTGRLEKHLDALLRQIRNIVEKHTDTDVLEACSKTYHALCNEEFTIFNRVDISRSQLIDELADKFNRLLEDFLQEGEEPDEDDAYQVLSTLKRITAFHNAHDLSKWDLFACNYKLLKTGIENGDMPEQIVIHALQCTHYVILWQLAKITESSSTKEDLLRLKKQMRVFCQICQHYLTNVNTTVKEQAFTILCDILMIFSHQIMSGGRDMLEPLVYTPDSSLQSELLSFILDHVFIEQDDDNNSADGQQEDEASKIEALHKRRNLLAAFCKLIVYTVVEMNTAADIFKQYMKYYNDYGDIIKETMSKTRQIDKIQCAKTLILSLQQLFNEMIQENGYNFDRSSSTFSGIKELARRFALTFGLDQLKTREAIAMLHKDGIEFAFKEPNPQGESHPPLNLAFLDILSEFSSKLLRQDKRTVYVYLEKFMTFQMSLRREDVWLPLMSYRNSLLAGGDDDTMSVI
T1 sequence (looked up) 2: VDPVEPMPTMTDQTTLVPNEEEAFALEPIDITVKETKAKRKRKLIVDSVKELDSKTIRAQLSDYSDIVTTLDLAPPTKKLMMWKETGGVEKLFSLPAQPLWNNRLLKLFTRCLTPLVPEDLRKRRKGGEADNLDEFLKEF
Assay: ITC; performed as described previously (ref. 21); data analysed with Origin 7.0; SGO1 peptides with SA2–SCC1
Conditions: both partners purified

Kd: 2.3 ± 0.4 µM
B1: SGO1 peptide spanning amino acids 331–349 containing phosphorylated pT346 (SNDAYNFNLEEGVHLpTPFR) (peptide)
peptide: SNDAYNFNLEEGVHL[pT]PFR
notes: Shugoshin 1 (SGO1), human, residues 331-349, T346 phosphorylated; also called T346-phosphorylated SGO1 fragment; SGO1 331–349 pT346

Kd: 13.5 ± 1.4 µM
B2: SGO1 peptide spanning amino acids 331–341 (SNDAYNFNLEE) (peptide)
peptide: SNDAYNFNLEE
notes: Shugoshin 1 (SGO1), human, residues 331-341 with the YxF motif; also called SGO1 331–341; nonphosphorylated SGO1 peptide
